Data: US20230416351A1 (Novartis, published 2023)

Biological target: T1, recombinant VEGF165 protein (human, UniProt P15692 27-191)
T1 construct: mature; the 165-residue isoform is meant; also called VEGF-A
Assay: SPR in vitro binding, drug and recombinant VEGF165, 37 C
Method: Drug-specific parameters used are defined based upon which drug(s) is included in the specific simulation. These values are shown in Table 2 for brolucizumab, aflibercept, and ranibizumab. The drug:VEGF binding parameter values (the dissociation rate constant “koff” and the equilibrium binding constant “Kd”) were defined on the basis of a surface plasmon resonance (SPR) in vitro binding experiment with drug and recombinant VEGF165 protein at 37° C. according to manufacturer's instructions. The hydrodynamic radius values for drug (“rh_R”) and associated drug:VEGF complexes (“rh_VR” and “rh_RVR”) were sourced from literature reports (Caruso et. al., Mol. Pharmaceutics 2020, 17, 695-709) or from computational structure models of drug and VEGF. This includes estimated hydrodynamic radius values for the heterogenous complexes consisting of one VEGF dimer and two different VEGF antagonists (“rh_ROVR”). Drug-independent parameters used are used to describe VEGF production and distribution within and out of the eye, as well as general biophysical properties of the eye such as permeability coefficients for the Inner Limiting Membrane (ILM) and Retinal Pigment Epithelium (RPE) and the clearance rate from the aqueous chamber.

T1 sequence (P15692 other isoform, or with tags, fused parts or gaps): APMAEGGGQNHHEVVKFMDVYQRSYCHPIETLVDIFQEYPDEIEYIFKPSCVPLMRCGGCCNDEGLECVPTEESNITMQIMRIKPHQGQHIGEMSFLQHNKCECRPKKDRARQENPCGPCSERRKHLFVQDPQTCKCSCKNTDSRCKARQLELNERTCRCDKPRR

Kd: 0.101 nM
B1: brolucizumab (scFv)
scFv: MEIVMTQSPSTLSASVGDRVIITCQASEIIHSWLAWYQQKPGKAPKLLIYLASTLASGVPSRFSGSGSGAEFTLTISSLQPDDFATYYCQNVYLASTNGANFGQGTKLTVLGGGGGSGGGGSGGGGSGGGGSEVQLVESGGGLVQPGGSLRLSCTASGFSLTDYYYMTWVRQAPGKGLEWVGFIDPDDDPYYATWAKGRFTISRDNSKNTLYLQMNSLRAEDTAVYYCAGGDHNSGWGLDIWGQGTLVTVSS
notes: Humanized single-chain Fv (VL-linker-VH), ~26 kDa; also called Beovu; VEGF antagonist A
